The supplement of paper PMC9112550, “Optimization of the antimicrobial peptide Bac7 by deep mutational scanning” (BMC Biology, 2022)

System: Escherichia coli TOP10
Test: shrunken log2 fold change of peptide-encoding DNA abundance (4.5 h post-induction vs induction); higher = less antimicrobial activity (less host growth inhibition)
Details: time post-induction: 4.5 h; library: site-saturation at positions 5, 18, 19, 20
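Further: peptides expressed intracellularly from a pBAD plasmid library in pooled LB shake-flask culture, induced with 0.3% L-arabinose, DNA abundance read by NGS, three biological replicates, DESeq2 with apeglm shrinkage.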

Sequence	shrunken log2 fold change
RRIRPRPPRLPRPRPRPTFQPRP	0.408
RRIRLRPPRLPRPRPRPQVAPRP	0.0825
RRIRKRPPRLPRPRPRPQSFPRP	0.327
RRIRERPPRLPRPRPRPCKHPRP	-0.5
RRIRPRPPRLPRPRPRPVEPPRP	0.352
RRIRTRPPRLPRPRPRPENAPRP	-0.49
RRIRCRPPRLPRPRPRPQNSPRP	-0.194
RRIRMRPPRLPRPRPRPTDQPRP	1.46
RRIRMRPPRLPRPRPRPQSRPRP	0.328
RRIRCRPPRLPRPRPRPCIHPRP	-0.415
RRIRGRPPRLPRPRPRPTELPRP	0.261
RRIRIRPPRLPRPRPRPQFWPRP	0.133
RRIRRRPPRLPRPRPRPPMYPRP	0.0631
RRIRIRPPRLPRPRPRPKRRPRP	0.123
RRIRWRPPRLPRPRPRPLGWPRP	2.31
RRIRPRPPRLPRPRPRPEHCPRP	-0.034
RRIRTRPPRLPRPRPRPKPNPRP	0.186
RRIRQRPPRLPRPRPRPCKVPRP	-0.101
RRIRDRPPRLPRPRPRPRAQPRP	0.457
RRIRLRPPRLPRPRPRPMWWPRP	1.19
RRIRMRPPRLPRPRPRPIAAPRP	2.71
RRIRDRPPRLPRPRPRPWRQPRP	-0.114
RRIRDRPPRLPRPRPRPNFPPRP	-0.0273
RRIRPRPPRLPRPRPRPEMIPRP	-0.0258
RRIRVRPPRLPRPRPRPYLRPRP	-0.165

Sequence	shrunken log2 fold change
RRIRQRPPRLPRPRPRPTAFPRP	0.321
RRIRKRPPRLPRPRPRPFLIPRP	-0.19
RRIRYRPPRLPRPRPRPNYVPRP	-0.466
RRIRARPPRLPRPRPRPSGNPRP	0.0499
RRIRYRPPRLPRPRPRPKFHPRP	-1.15
RRIRHRPPRLPRPRPRPHKRPRP	0.0586
RRIRLRPPRLPRPRPRPNSKPRP	-0.706
RRIRRRPPRLPRPRPRPLSRPRP	0.0601
RRIRNRPPRLPRPRPRPQLNPRP	-0.539
RRIRWRPPRLPRPRPRPCDQPRP	-0.0328
RRIRARPPRLPRPRPRPMTMPRP	0.245
RRIRFRPPRLPRPRPRPSEMPRP	-0.148
RRIRERPPRLPRPRPRPIAVPRP	0.0116
RRIRWRPPRLPRPRPRPQSNPRP	-0.124
RRIRGRPPRLPRPRPRPNDNPRP	0.19
RRIRTRPPRLPRPRPRPFCCPRP	-0.309
RRIRERPPRLPRPRPRPATIPRP	-0.105
RRIRMRPPRLPRPRPRPWWRPRP	0.494
RRIRQRPPRLPRPRPRPLWWPRP	0.121
RRIRIRPPRLPRPRPRPCIYPRP	-0.0179
RRIRFRPPRLPRPRPRPCNEPRP	-0.0116
RRIRIRPPRLPRPRPRPWNPPRP	-0.106
RRIRIRPPRLPRPRPRPEDLPRP	-0.00555
RRIRNRPPRLPRPRPRPKETPRP	-0.0238
RRIRWRPPRLPRPRPRPIHEPRP	0.041

Sequence	shrunken log2 fold change
RRIRRRPPRLPRPRPRPFLSPRP	0.128
RRIRERPPRLPRPRPRPLVYPRP	-0.309
RRIRYRPPRLPRPRPRPQIIPRP	-0.248
RRIRFRPPRLPRPRPRPEHIPRP	-0.161
RRIRQRPPRLPRPRPRPVLKPRP	-0.108
RRIRERPPRLPRPRPRPHKAPRP	-0.0142
RRIRIRPPRLPRPRPRPNWFPRP	0.0822
RRIRHRPPRLPRPRPRPPCFPRP	-0.0882
RRIRYRPPRLPRPRPRPQISPRP	-0.0191
RRIRSRPPRLPRPRPRPINGPRP	-0.00748
RRIRPRPPRLPRPRPRPTCFPRP	0.0572
RRIRHRPPRLPRPRPRPGDQPRP	-0.0414
RRIRDRPPRLPRPRPRPLWRPRP	0.152
RRIRDRPPRLPRPRPRPSRNPRP	0.326
RRIRRRPPRLPRPRPRPWSTPRP	-0.0543
RRIRSRPPRLPRPRPRPIRMPRP	-0.109
RRIRLRPPRLPRPRPRPIRLPRP	-0.3
RRIRMRPPRLPRPRPRPQPEPRP	0.582
RRIRMRPPRLPRPRPRPMLQPRP	0.196
RRIRLRPPRLPRPRPRPKLGPRP	-0.123
RRIRHRPPRLPRPRPRPTPHPRP	0.281
RRIRWRPPRLPRPRPRPLQCPRP	0.101
RRIRVRPPRLPRPRPRPNNGPRP	-0.497
RRIRNRPPRLPRPRPRPKYEPRP	-0.167
RRIRTRPPRLPRPRPRPWFNPRP	-0.471

Sequence	shrunken log2 fold change
RRIRSRPPRLPRPRPRPDHDPRP	-0.357
RRIRMRPPRLPRPRPRPVQIPRP	0.378
RRIRQRPPRLPRPRPRPKTMPRP	-0.0635
RRIRRRPPRLPRPRPRPLFFPRP	0.137
RRIRWRPPRLPRPRPRPPPIPRP	0.574
RRIRCRPPRLPRPRPRPTQLPRP	0.338
RRIRARPPRLPRPRPRPKVRPRP	0.047
RRIRPRPPRLPRPRPRPARAPRP	0.438
RRIRMRPPRLPRPRPRPIMIPRP	-0.16
RRIRYRPPRLPRPRPRPVLPPRP	-0.511
RRIRFRPPRLPRPRPRPMMSPRP	-0.0228
RRIRGRPPRLPRPRPRPLIRPRP	0.0808
RRIRFRPPRLPRPRPRPHTGPRP	-0.411
RRIRRRPPRLPRPRPRPQIVPRP	-0.13
RRIRARPPRLPRPRPRPWCEPRP	0.404
RRIRIRPPRLPRPRPRPERDPRP	-0.175
RRIRIRPPRLPRPRPRPTRDPRP	-0.0265
RRIRNRPPRLPRPRPRPEWGPRP	0.114
RRIRRRPPRLPRPRPRPQVGPRP	0.149
RRIRARPPRLPRPRPRPYLDPRP	0.118
RRIRHRPPRLPRPRPRPEVKPRP	0.104
RRIRKRPPRLPRPRPRPMHQPRP	0.003
RRIRSRPPRLPRPRPRPDRYPRP	-0.172
RRIRMRPPRLPRPRPRPWWSPRP	0.334
RRIRVRPPRLPRPRPRPRVMPRP	0.188

Sequence	shrunken log2 fold change
RRIRARPPRLPRPRPRPPFWPRP	0.914
RRIRCRPPRLPRPRPRPGEWPRP	0.393
RRIRWRPPRLPRPRPRPKIEPRP	-0.0252
RRIRIRPPRLPRPRPRPFSVPRP	-0.248
RRIRMRPPRLPRPRPRPLLEPRP	2.21
RRIRFRPPRLPRPRPRPAMQPRP	0.109
RRIRPRPPRLPRPRPRPRSKPRP	-0.149
RRIRKRPPRLPRPRPRPHTEPRP	0.0507
RRIRNRPPRLPRPRPRPNINPRP	-0.638
RRIRFRPPRLPRPRPRPYKQPRP	-0.83
RRIRARPPRLPRPRPRPQVWPRP	0.275
RRIRLRPPRLPRPRPRPKWTPRP	0.0422
RRIRQRPPRLPRPRPRPDQKPRP	0.019
RRIRQRPPRLPRPRPRPIVAPRP	-0.00611
RRIRFRPPRLPRPRPRPRTKPRP	0.947
RRIRPRPPRLPRPRPRPGGEPRP	0.601
RRIRNRPPRLPRPRPRPYCCPRP	-0.564
RRIRARPPRLPRPRPRPSIEPRP	0.0128
RRIRHRPPRLPRPRPRPLGWPRP	0.708
RRIRGRPPRLPRPRPRPFPIPRP	0.21
RRIRFRPPRLPRPRPRPSHWPRP	0.0131
RRIRKRPPRLPRPRPRPMKRPRP	0.138
RRIRVRPPRLPRPRPRPNSTPRP	-0.515
RRIRPRPPRLPRPRPRPIKWPRP	0.0716
RRIRIRPPRLPRPRPRPSHRPRP	-0.276
